Data taken from US20260056186A1 (JIANGSU HENGRUI PHARMACEUTICALS, published 2026).
Like-named read-outs stand apart in the source and are kept apart here.

T1: APRIL (Acro Biosystems, Cat: APL-H52D1) (UniProt O75888 115-250, limits assumed)
T1 construct: also called ARPIL
T1 sequence (looked up): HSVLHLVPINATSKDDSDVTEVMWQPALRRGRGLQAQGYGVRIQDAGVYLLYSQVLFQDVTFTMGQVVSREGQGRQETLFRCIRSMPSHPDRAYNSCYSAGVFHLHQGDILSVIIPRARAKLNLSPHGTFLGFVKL


Experiments:
[1] = target: T2, BAFF (PeproTech, Cat: 310-13) (UniProt Q9Y275 134-285); assay: ELISA, plate coated with BAFF 1 ug/mL, HRP anti-human Fc, OD450
Method: (§1) BAFF (PeproTech, Cat: 310-13) was diluted to 1 μg/mL with PBS, and a 96-well plate was coated with the dilution overnight at 4° C. The plate was washed with PBST and blocked with Blocking Buffer (PBST containing 1% BSA) at 37° C. for 1 h. The plate was tapped. The test antibodies were diluted with Blocking Buffer. Incubation was performed at 37° C. for 1.5 h. The plate was washed with PBST. An HRP-mouse anti-human Fc antibody (GenScript, Cat: A01854-200) was diluted with Blocking Buffer. Incubation was performed at 37° C. for 40 min. The plate was washed with PBST. 100 μL of TMB substrate solution (Biopanda, Cat: TMB-S-003) was added, and color development was performed at 37° C. for 3 min. 100 μL of ELISA stop solution (Solarbio, Cat: C1058) was added. OD450 was measured.

[2] = target: T2, BAFF (PeproTech, Cat: 310-13); assay: ELISA, BAFF coated; reference telitacicept
Method: as §1, with “The capabilities of TACI-BCMA fusion proteins (B575701, B575702, B575703, and B575704) to bind to BAFF and APRIL were assessed by ELISA as follows: BAFF (PeproTech,” for “BAFF (PeproTech,”, “Cat: 310-13) or ARPIL (Acro Biosystems, Cat: APL-H52D1) was diluted” for “Cat: 310-13) was diluted”, “96-well plate (Costar, Cat: 3590) was coated” for “96-well plate was coated”
(§2) The capability of B575702 to bind to BAFF was consistent with that of B575704, and their EC₅₀ values decreased to ¼ of that of telitacicept. The capability of B575701 to bind to BAFF was consistent with that of B575703, and their EC₅₀ values decreased to ½ of that of telitacicept.

[3] = target: T2, BAFF (PeproTech, Cat: 310-13); assay: ELISA, BAFF coated at 1 ug/mL, anti-human Fc-HRP, OD450
Method: as §1, with “The capabilities of TACI-BCMA fusion proteins (B575701, B575702, B575703, and B575704) to bind to BAFF and APRIL were assessed by ELISA as follows: BAFF (PeproTech,” for “BAFF (PeproTech,”, “Cat: 310-13) or ARPIL (Acro Biosystems, Cat: APL-H52D1) was diluted” for “Cat: 310-13) was diluted”, “96-well plate (Costar, Cat: 3590) was coated” for “96-well plate was coated”
as §2

[4] = target: T1, APRIL (Acro Biosystems, Cat: APL-H52D1); assay: ELISA, APRIL coated at 1 ug/mL, anti-human Fc-HRP, OD450
Method: as §1, with “The capabilities of TACI-BCMA fusion proteins (B575701, B575702, B575703, and B575704) to bind to BAFF and APRIL were assessed by ELISA as follows: BAFF (PeproTech,” for “BAFF (PeproTech,”, “Cat: 310-13) or ARPIL (Acro Biosystems, Cat: APL-H52D1) was diluted” for “Cat: 310-13) was diluted”, “96-well plate (Costar, Cat: 3590) was coated” for “96-well plate was coated”
The capabilities of the 4 fusion proteins to bind to APRIL were all stronger than that of telitacicept, and their EC₅₀ values decreased to ¼ to ⅓ of that of telitacicept.

[5] = target: T3, BAFF (Sino biological, 10056-HNCH) (UniProt Q9Y275 134-285, biotinylated in the blocking ELISA (site not stated)); assay: ELISA, BAFF coated at 1 ug/mL, anti-human IgG-HRP
T3 construct: also called BLyS
Method: (§3) In addition, the BAFF binding activity of the constructed TACI-Fc fusion proteins was assessed, and the TACI-Fc fusion proteins' functional activity of blocking the binding of BAFF to BAFF-R was assessed (see Example 1 for the experimental method).
(§4) The BAFF binding activity of the TACI-Fc fusion proteins was assessed as follows: BAFF (Sino biological, 10056-HNCH) protein was diluted with a pH 7.4 PBS (BasalMedia, B320) buffer to 1 μg/mL, and the resulting dilution was added to a 96-well microplate (Corning, 3590) at 100 μL/well. The plate was incubated overnight at 4° C. After the liquid was discarded, 5% skim milk (BD, 232100), diluted with PBS, was added at 300 μL/well for blocking, and the plate was incubated at 37° C. for 2 h. After the blocking, the blocking solution was discarded, and the plate was washed 3 times with a PBST buffer (pH 7.4 PBS containing 0.10% tween-20). Serially diluted test antibody or fusion protein solutions were added at 100 μL/well, and the plate was incubated at 37° C. for 1 h. […] The plate was incubated at 37° C. for 1 h. After the plate was washed 3 times with PBST, the chromogenic substrate TMB (KPL, 5120-0077) was added at 100 μL/well. The plate was incubated at room temperature for 10-15 min, and 1 M H₂SO₄ was added at 50 μL/well to stop the reaction. The absorbance at 450 nm was measured using a microplate reader. Curves for the binding of the antibodies to the antigen were fitted using software, and EC₅₀ values were calculated.

[6] = target: T3, BAFF (Sino biological, 10056-HNCH); assay: ELISA, BAFF coated at 1 ug/mL, anti-human IgG-HRP; remark: listed apart in the source
Method: as §4
The BAFF binding activity of the constructed TACI-Fc fusion proteins was assessed (see Example 2 for the experimental method), and the results are shown in Table 3: […]

[7] = target: T3, BAFF (Sino biological, 10056-HNCH); assay: competition ELISA: fusion protein pre-mixed with biotinylated BAFF, added to coated BAFF-R
Method: The above TACI-Fc fusion proteins' function of blocking the binding of BAFF to BAFF-R was further assessed as follows: The receptor protein was diluted with a pH 7.4 PBS (BasalMedia, B320) buffer to 2 μg/mL, and the resulting dilution was added to a 96-well microplate (Corning, 3590) at 100 μL/well. The plate was incubated overnight at 4° C. After the liquid was discarded, 1% Casein blocking solution (Thermo, 37528) was added at 200 μL/well for blocking, and the plate was incubated at 37° C. for 2 h. After the blocking, the blocking solution was discarded, and the plate was washed 3 times with a PBST buffer (pH 7.4 PBS containing 0.1% tween-20) and set aside for later use. A biotinylated ligand protein at a fixed concentration was mixed with a serially diluted antibody or fusion protein, and the mixture was pre-incubated at 37° C. for 30 min and then added to the blocked microplate. The plate was incubated at 37° C. for 1.5 h. After the incubation, the plate was washed 3 times with PBST, and streptavidin-HRP (Invitrogen, 434323, diluted in a 1:4000 ratio) was added at 100 μL/well. The plate was incubated at 37° C. for 1 h. The supernatant was removed. […] The absorbance at 450 nm was measured using a microplate reader. Curves for the inhibition of the binding of the ligand to the receptor were fitted using software, and IC₅₀ values were calculated. […]

[8] = target: T3, BAFF (Sino biological, 10056-HNCH); assay: as above; remark: listed apart in the source
Method: The above TACI-Fc fusion proteins' function of blocking the binding of BAFF to BAFF-R was further assessed as follows: The receptor protein was diluted with a pH 7.4 PBS (BasalMedia, B320) buffer to 2 μg/mL, and the resulting dilution was added to a 96-well microplate (Corning, 3590) at 100 μL/well. The plate was incubated overnight at 4° C. After the liquid was discarded, 1% Casein blocking solution (Thermo, 37528) was added at 200 μL/well for blocking, and the plate was incubated at 37° C. for 2 h. After the blocking, the blocking solution was discarded, and the plate was washed 3 times with a PBST buffer (pH 7.4 PBS containing 0.1% tween-20) and set aside for later use. A biotinylated ligand protein at a fixed concentration was mixed with a serially diluted antibody or fusion protein, and the mixture was pre-incubated at 37° C. for 30 min and then added to the blocked microplate. The plate was incubated at 37° C. for 1.5 h. After the incubation, the plate was washed 3 times with PBST, and streptavidin-HRP (Invitrogen, 434323, diluted in a 1:4000 ratio) was added at 100 μL/well. The plate was incubated at 37° C. for 1 h. The supernatant was removed. After the plate was washed 3 times with PBST, the chromogenic substrate TMB (KPL, 5120-0077) was added at 100 μL/well. The plate was incubated at room temperature for 10-15 min, and 1 M H₂SO₄ was added at 50 μL/well to stop the reaction. The absorbance at 450 nm was measured using a microplate reader. Curves for the inhibition of the binding of the ligand to the receptor were fitted using software, and IC₅₀ values were calculated. The sources of the ligand and the receptor protein used are as follows: BAFF (Sino biological, 10056-HNCH) and BAFF-R (Sino biological, 16079-H02H).
as §3

EC50 (read off the curve) [1] [nM] | EC50 relative to telitacicept [2] [fold] | EC50 [3] [nM] | Emax [3] | EC50 [4] [nM] | Emax [4] | EC50 [5] [nM] | EC50 [6] [nM] | IC50 [7] [nM] | IC50 [8] [nM] | Binder
~0.3 |  |  |  |  |  |  |  |  |  | Atacicept (Fc fusion) AMRSCPEEQYWDPLLGTCMSCKTICNHQSQRTCAAFCRSLSCRKEQGKFYDHLLRDCISCASICGQHPKQCAYFCENKLRSEPKSSDKTHTCPPCPAPEAEGAPSVFLFPPKPKDTLMISRTPEVTCVVVDVSHEDPEVKFNWYVDGVEVHNAKTKPREEQYNSTYRVVSVLTVLHQDWLNGKEYKCKVSNKALPSSIEKTISKAKGQPREPQVYTLPPSRDELTKNQVSLTCLVKGFYPSDIAVEWESNGQPENNYKTTPPVLDSDGSFFLYSKLTVDKSRWQQGNVFSCSVMHEALHNHYTQKSLSLSPGK
 |  |  |  |  |  | 0.49 | 0.418 | 5.02 | 2.09 | TACI-9-Fc (Fc fusion, C-terminus of TACI-9 fused directly to the N-terminus of human IgG1 Fc; two identical polypeptide chains; expressed in 293E) SLSCRKEQGKFYDHLLRDCISCASICGQHPKQCAYFCENKLDKTHTCPPCPAPEAEGAPSVFLFPPKPKDTLMISRTPEVTCVVVDVSHEDPEVKFNWYVDGVEVHNAKTKPREEQYNSTYRVVSVLTVLHQDWLNGKEYKCKVSNKALPSSIEKTISKAKGQPREPQVYTLPPSRDELTKNQVSLTCLVKGFYPSDIAVEWESNGQPENNYKTTPPVLDSDGSFFLYSKLTVDKSRWQQGNVFSCSVMHEALHNHYTQKSLSLSPGK

The remaining lines, values behind:

Binder | EC50 (read off the curve) [1] [nM] | EC50 relative to telitacicept [2] [fold] | EC50 [3] [nM] | Emax [3] | EC50 [4] [nM] | Emax [4] | EC50 [5] [nM] | EC50 [6] [nM] | IC50 [7] [nM] | IC50 [8] [nM]
B575704 (Fc fusion, TACI-BCMA fusion protein; also called BCMA-ECD-TACI-T2-Fc) MLQMAGQCSQNEYFDSLLHACIPCQLRCSSNTPPLTCQRYCNASVTNSVKGTNASRVDQEERFPQGLWTGVAMRSCPEEQYWDPLLGTCMSCKTICNHQSQRTCAAFCRSLSCRKEQGKFYDHLLRDCISCASICGQHPKQCAYFCENKLRSPVNLPPELDKTHTCPPCPAPEAEGAPSVFLFPPKPKDTLMISRTPEVTCVVVDVSHEDPEVKFNWYVDGVEVHNAKTKPREEQYNSTYRVVSVLTVLHQDWLNGKEYKCKVSNKALPSSIEKTISKAKGQPREPQVYTLPPSRDELTKNQVSLTCLVKGFYPSDIAVEWESNGQPENNYKTTPPVLDSDGSFFLYSKLTVDKSRWQQGNVFSCSVMHEALHNHYTQKSLSLSPGK |  | 0.25 | 0.187 | 2.29 nM (as printed) | 0.189 | 2.68 |  |  |  | 
B575701 (Fc fusion, TACI-BCMA fusion protein; also called TACI-d2-BCMA-ECD-Fc) LSCRKEQGKFYDHLLRDCISCASICGQHPKQCAYFCENKLRSPGMLQMAGQCSQNEYFDSLLHACIPCQLRCSSNTPPLTCQRYCNASVTNSVKGTNADKTHTCPPCPAPEAEGAPSVFLFPPKPKDTLMISRTPEVTCVVVDVSHEDPEVKFNWYVDGVEVHNAKTKPREEQYNSTYRVVSVLTVLHQDWLNGKEYKCKVSNKALPSSIEKTISKAKGQPREPQVYTLPPSRDELTKNQVSLTCLVKGFYPSDIAVEWESNGQPENNYKTTPPVLDSDGSFFLYSKLTVDKSRWQQGNVFSCSVMHEALHNHYTQKSLSLSPGK |  | 0.5 | 0.324 | 2.31 nM (as printed) | 0.205 | 2.69 |  |  |  | 
